Results as given in patent publication US20090197805A1, “Insulin receptor antagonists and related compositions, uses and methods” (Novo Nordisk A/S, priority 2005, published 2009).
Ends that are not written are not given here.

Tests used:
IGF1 receptor = test: competition binding assay with 125I-labeled IGF1 on the IGF1 receptor; reference IGF1
insulin receptor = test: competition binding assay with 125I-labeled insulin on the insulin receptor; reference human insulin

- fold lower affinity than IGF1 (IGF1 receptor): 200000 fold
- affinity relative to human insulin (insulin receptor): 48%
Binder: GSLDESFYDWFERQLGGGSGGSSLEEEWAQIQCEVWGRGCPSY-NH2 (cysteine pairing not given here) [PIRA S661 (…-amide)]
